According to US20120219498A1 (RAMOT AT TEL AVIV UNIVERSITY, published 2012):

B1: ADOPep3 (peptide)
peptide: AVTLENFLHWRR
B2: ADOPep2 (peptide)
peptide: ENFLHWRRAHLL
B3: Motif B peptide (HWRRA) (peptide)
peptide: HWRRA
notes: also called peptide motif B
B4: ADOPep1 (peptide)
peptide: HWRRAHLLPRLP
notes: Unlabelled synthetic peptide (SynPep); also called non-biotinylated ADOPep1

Legend:
[1] = molecular target: T1, glucose-regulated protein (GRP78) (Homo sapiens, UniProt P11021 19-654); experiment: cell ELISA on endothelial cells, peptide 2 hours, then competitor anti-GRP78 antibody at 2 ug/ml
T1 construct: Endogenous GRP78: on the membrane of human umbilical vein endothelial cells (HUVEC) or tumor cell lines in FACS and cell ELISA; from HUVEC lysate in the immunoprecipitation and Western blot experiments; also called GRP78 receptor; ADOPeps receptor
Experimental: Endothelial cells were incubated for 2 hours with increasing concentrations of ADOPeps, following which the cells were incubated for another 1 hour with the 2 μg/ml of anti-GRP78 antibody and the amount of bound antibody on EC was detected using an ELISA reader.
Endothelial cells (20,000 per well) were seeded in 96 well plates for 24 hours in the presence of the complete medium. Plates were washed with PBS over night and rehydrated with PBS, 0.1% Na Azide and 5% FCS. ADOPep1, ADOPep2 and ADOPep3 were added to washed plates for 2 hours at room temperature at concentrations of 0.01, 0.1 and 1 microgram per ml. Anti-GRP78 antibody (goat polyclona IgG, Santa Cruz Biotechnology, Calif., USA) was added to the plates for 1 hour at room temperature at a concentration of 2 micrograms/ml per well. After washing, bound anti-GRP78 antibody was detected by incubation with anti-goat IgG Peroxidase conjugated (Jackson Immuneresearch Laboratories, PA, USA). After 5 washes with PBS-0.1% Tween 20, 100 μl/well of TMB+ Substrate-Chromogen (DAKOCytomation, CA, USA) was added for a maximum of 30 minutes. Reaction was stopped with 1N HCl. Color developed was determined by an ELISA reader at 450 nm.

[2] = molecular target: T1, glucose-regulated protein (GRP78); experiment: endothelial cells, normoxia, peptide at 0.01, 0.1 or 1 ng/ml for 2 hours, then competitor biotinylated ADOPep1 at 2 ug/ml, HRP-streptavidin
Experimental: Endothelial cells were incubated for 2 hours under normoxia conditions in the presence of increasing concentrations (0.01, 0.1 or 1 ng/ml) of peptides having the amino acid sequences corresponding to Motif A (HWRRP; SEQ ID NO:7), Motif B (HWRRA; SEQ ID NO:8), Motif C (AHLLP; SEQ ID NO:6) or non-biotinylated ADOPep1 (SEQ ID NO:2) and then were incubated for 1 hour with biotinylated ADOPep1 (2 μg/ml) and the binding of biotinylated ADOPep1 to endothelial cells was determined using HRP-streptavidin.

T1 sequence (P11021 19-654 limits assumed): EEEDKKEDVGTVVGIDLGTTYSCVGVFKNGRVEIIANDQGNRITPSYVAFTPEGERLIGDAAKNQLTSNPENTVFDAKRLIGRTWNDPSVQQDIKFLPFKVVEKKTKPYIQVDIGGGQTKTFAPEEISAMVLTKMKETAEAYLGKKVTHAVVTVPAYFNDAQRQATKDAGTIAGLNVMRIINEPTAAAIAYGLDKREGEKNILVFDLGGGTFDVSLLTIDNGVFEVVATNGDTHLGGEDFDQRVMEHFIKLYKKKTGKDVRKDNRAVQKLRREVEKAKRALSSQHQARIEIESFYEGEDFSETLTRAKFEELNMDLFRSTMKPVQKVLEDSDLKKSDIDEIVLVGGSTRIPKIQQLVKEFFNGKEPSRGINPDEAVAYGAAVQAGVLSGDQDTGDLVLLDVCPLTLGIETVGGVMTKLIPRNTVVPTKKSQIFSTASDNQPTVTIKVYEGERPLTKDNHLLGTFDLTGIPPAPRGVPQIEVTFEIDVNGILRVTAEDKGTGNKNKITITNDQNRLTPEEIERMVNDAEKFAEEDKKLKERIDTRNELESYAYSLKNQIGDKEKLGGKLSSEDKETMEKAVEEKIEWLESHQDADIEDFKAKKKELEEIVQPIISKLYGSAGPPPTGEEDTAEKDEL

Binder | percent inhibition of binding of anti-GRP78 antibody [1] [%] | binding result [2]
B1 | ≤ 50 | 
B2 | ≤ 50 | 
B3 |  | binds
B4 | ≤ 50 | 
